Tested on: Jurkat cells
Experiment: Tacrolimus dose response of FKBP13-AcGFP-mCherry constructs stably transduced into Jurkat cells, GFP MFI by flow cytometry
Assay type: cell-based
Set-up: Basal: unit not given here
Details: for DRD function after abrogating the disulfide bonds: FIG. 4; for basal AcGFP expression: absence of tacrolimus
Protocol: The regulation of AcGFP, from FKBP13-AcGFP-mCherry constructs, in Jurkat cells, was also studied. Jurkat Clone E6-1 cells were cultured in standard media (RPMI+GlutaMAX Supplement (Life Technologies, Carlsbad, CA Cat #61870127), Fetal Bovine Serum (FBS) (Life Technologies Cat #10-082-147)). Jurkat cells were transduced with lentivirus produced with each of FKBP-039, FKBP-040, FKBP-041, FKBP-042, FKBP-043, FKBP-044, or FKBP-045 constructs. Jurkat cells were transduced until they were 10-25% positive, as determined on day 5 post-transduction, by using mCherry as a transduction marker. […] The Geometric Mean Fluorescent Intensity (MFI) of GFP expression in mCherry+ cells was plotted and dose response curve fits were performed using Prism Software (San Diego, CA).
FKBP-091 was used as a comparative construct.
FIGS. 22-38 show the results of characterization of FKBP-160-292. […] FKBP-091 and FKBP-117 was used as a comparative control for FKBP-160-FKBP-255. FKBP-195 was used as a comparative control for FKBP-256-FKBP-275. FKBP-117, FPBP-195 and FKBP-251 were used as a comparative control for FKBP-276-FKBP-292.
FKBP mutants were cloned in a manner to make a fusion protein with AcGFP in order to assess FKBP mutant regulation by using AcGFP expression as a readout. […] Further iterative FKBP mutants (FKBP-256-FKBP-292) were constructed from these initial combinatorial mutants to see if we could further improve FKBP DRD properties.

[1] = tacrolimus dose response, Jurkat cells stably transduced (FIG. 4), Table 4
[2] = tacrolimus, Jurkat cells, Table 13

B1: FKBP-062: FKBP13 DRD Q72R, Q84E, A117H, M54A, [−]disulfide; SEQ ID NO: 18 (protein)
chain: HSPIKSRKGDVLHAHYTGKLEDGTEFDSSLPRNQPFVFSLGTGEVIKGWDQGLLGMSEGEKRKLVIPSELGYGERGHPPKIPGGATLVFEVELLKIER
modifications: disulfide removed; Description of sequence: FKBP13-AcGFP-mCherry Fusion; Construct Name: FKBP-062; FKBP13 DRD in Construct : FKBP13 (mutated to match FKBP12 active site - Q72R Q84E A117H) (DRD - M54A [-]disulfide)
DRD function after abrogating the disulfide bonds (tacrolimus dose response): did not create a significant difference in DRD function
Fold Change [1]: 10.4

B2: FKBP-272: constructed from FKBP-195 by changing the K135Y mutation to K135L (protein)
chain: HCPIKSRKGDVLHMHYTGKLEDGTEFDSSLPRNQPFVFSLGTGERIKGWDQGLLGMCEGEKRKLVIPSELGYGERGWPPKIPGGATLVFEVELLLIER
modifications: Description of sequence: Construct Name: FKBP-272; Mutation(s): Q72R Q84E A117W V85R DRD K135L
notes: constructed from FKBP-195 by changing the K135Y mutation to K135L
Basal (FIG. 39): 71.5
FC (FIG. 39): 85
Peak (FIG. 39): 5857
Basal (FIG. 50): 55.6
FC (FIG. 50): 105.86
At 10 uM (FIG. 50): 5886
basal AcGFP expression: lower basal AcGFP expression
Fold Change [2]: 105.86

B3: FKBP-055: FKBP13 DRD Q72R, Q84E, A117H, F78V; SEQ ID NO: 11 (protein)
chain: HCPIKSRKGDVLHMHYTGKLEDGTEFDSSLPRNQPFVVSLGTGEVIKGWDQGLLGMCEGEKRKLVIPSELGYGERGHPPKIPGGATLVFEVELLKIER
modifications: Description of sequence: FKBP13-AcGFP-mCherry Fusion; Construct Name: FKBP-055; FKBP13 DRD in Construct : FKBP13 mutated to match FKBP12 active site - (Q72R Q84E A117H) (DRD - F78V)
Fold Change [1]: 9.0

B4: FKBP-053: FKBP13 DRD Q72R, Q84E, A117H, D90G, F66H; SEQ ID NO: 9 (protein)
chain: HCPIKSRKGDVLHMHYTGKLEDGTEHDSSLPRNQPFVFSLGTGEVIKGWGQGLLGMCEGEKRKLVIPSELGYGERGHPPKIPGGATLVFEVELLKIER
modifications: Description of sequence: FKBP13-AcGFP-mCherry Fusion; Construct Name: FKBP-053; FKBP13 DRD in Construct : FKBP13 (mutated to match FKBP12 active site - Q72R Q84E A117H) (DRD - D90G F66H)
Fold Change [1]: 1.0

B5: FKBP-056: FKBP13 DRD Q72R, Q84E, A117H, F129K; SEQ ID NO: 12 (protein)
chain: HCPIKSRKGDVLHMHYTGKLEDGTEFDSSLPRNQPFVFSLGTGEVIKGWDQGLLGMCEGEKRKLVIPSELGYGERGHPPKIPGGATLVKEVELLKIER
modifications: Description of sequence: FKBP13-AcGFP-mCherry Fusion; Construct Name: FKBP-056; FKBP13 DRD in Construct : FKBP13 (mutated to match FKBP12 active site - Q72R Q84E A117H) (DRD - F129K)
Fold Change [1]: 1.0

B6: FKBP-057: FKBP13 DRD Q72R, Q84E, A117H, I106A; SEQ ID NO: 13 (protein)
chain: HCPIKSRKGDVLHMHYTGKLEDGTEFDSSLPRNQPFVFSLGTGEVIKGWDQGLLGMCEGEKRKLVAPSELGYGERGHPPKIPGGATLVFEVELLKIER
modifications: Description of sequence: FKBP13-AcGFP-mCherry Fusion; Construct Name: FKBP-057; FKBP13 DRD in Construct : FKBP13 (mutated to match FKBP12 active site - Q72R Q84E A117H) (DRD - I106A)
Fold Change [1]: 2.7

B7: FKBP-061: FKBP13 DRD Q72R, Q84E, A117H, L133A; SEQ ID NO: 17 (protein)
chain: HCPIKSRKGDVLHMHYTGKLEDGTEFDSSLPRNQPFVFSLGTGEVIKGWDQGLLGMCEGEKRKLVIPSELGYGERGHPPKIPGGATLVFEVEALKIER
modifications: Description of sequence: FKBP13-AcGFP-mCherry Fusion; Construct Name: FKBP-061; FKBP13 DRD in Construct : FKBP13 (mutated to match FKBP12 active site - Q72R Q84E A117H) (DRD - L133A)
Fold Change [1]: 16.6

B8: FKBP-058: FKBP13 DRD Q72R, Q84E, A117H, L52A; SEQ ID NO: 14 (protein)
chain: HCPIKSRKGDVAHMHYTGKLEDGTEFDSSLPRNQPFVFSLGTGEVIKGWDQGLLGMCEGEKRKLVIPSELGYGERGHPPKIPGGATLVFEVELLKIER
modifications: Description of sequence: FKBP13-AcGFP-mCherry Fusion; Construct Name: FKBP-058; FKBP13 DRD in Construct : FKBP13 (mutated to match FKBP12 active site - Q72R Q84E A117H) (DRD - L52A)
Fold Change [1]: 8.1

B9: FKBP-263: based on FKBP-215 removing the M54A mutation (protein)
chain: HCRIKSRKGDVLHMHYTGKLEDGTEFDSSLPRNQPFVFSLGTGGRIKGWDQGLLGMCEGEKRKLVIPSELGYGERGWPPKIPGGATLVFEVELLYIER
modifications: Description of sequence: Construct Name: FKBP-263; Mutation(s): Q72R Q84G A117W V85R DRD P43R K135Y
notes: based on FKBP-215 removing the M54A mutation
Basal (FIG. 49, BR1 (Biorep 1)): 56
FC (FIG. 49, BR1 (Biorep 1)): 49.02
At 10 uM (FIG. 49, BR1 (Biorep 1)): 2745
Basal (FIG. 49, BR2 (Biorep 2)): 63.3
FC (FIG. 49, BR2 (Biorep 2)): 45.75
At 10 uM (FIG. 49, BR2 (Biorep 2)): 2896
basal AcGFP expression: retained the low basal AcGFP expression
FC (tacrolimus, FIGS. 31 and 32): 56
Fold Change [2]: 56

B10: FKBP-054: FKBP13 DRD Q72R, Q84E, A117H, D90G, L127K; SEQ ID NO: 10 (protein)
chain: HCPIKSRKGDVLHMHYTGKLEDGTEFDSSLPRNQPFVFSLGTGEVIKGWGQGLLGMCEGEKRKLVIPSELGYGERGHPPKIPGGATKVFEVELLKIER
modifications: Description of sequence: FKBP13-AcGFP-mCherry Fusion; Construct Name: FKBP-054; FKBP13 DRD in Construct : FKBP13 (mutated to match FKBP12 active site - Q72R Q84E A117H) (DRD - D90G L127K)
Fold Change [1]: 0.9

B11: FKBP-060: FKBP13 DRD Q72R, Q84E, A117H, L104A; SEQ ID NO: 16 (protein)
chain: HCPIKSRKGDVLHMHYTGKLEDGTEFDSSLPRNQPFVFSLGTGEVIKGWDQGLLGMCEGEKRKAVIPSELGYGERGHPPKIPGGATLVFEVELLKIER
modifications: Description of sequence: FKBP13-AcGFP-mCherry Fusion; Construct Name: FKBP-060; FKBP13 DRD in Construct : FKBP13 (mutated to match FKBP12 active site - Q72R Q84E A117H) (DRD - L104A)
Fold Change [1]: 2.7

B12: FKBP-063: FKBP13 DRD Q72R, Q84E, A117H, M54A, C42S; SEQ ID NO: 19 (protein)
chain: HSPIKSRKGDVLHAHYTGKLEDGTEFDSSLPRNQPFVFSLGTGEVIKGWDQGLLGMCEGEKRKLVIPSELGYGERGHPPKIPGGATLVFEVELLKIER
modifications: Description of sequence: FKBP13-AcGFP-mCherry Fusion; Construct Name: FKBP-063; FKBP13 DRD in Construct : FKBP13 (mutated to match FKBP12 active site - Q72R Q84E A117H) (DRD - M54A C42S )
DRD function after abrogating the disulfide bonds (tacrolimus dose response): did not create a significant difference in DRD function
Fold Change [1]: 7.3

B13: FKBP-059: FKBP13 DRD Q72R, Q84E, A117H, L93A; SEQ ID NO: 15 (protein)
chain: HCPIKSRKGDVLHMHYTGKLEDGTEFDSSLPRNQPFVFSLGTGEVIKGWDQGALGMCEGEKRKLVIPSELGYGERGHPPKIPGGATLVFEVELLKIER
modifications: Description of sequence: FKBP13-AcGFP-mCherry Fusion; Construct Name: FKBP-059; FKBP13 DRD in Construct : FKBP13 (mutated to match FKBP12 active site - Q72R Q84E A117H) (DRD - L93A)
Fold Change [1]: 27.3
Fold Change (tacrolimus dose response, Jurkat cells stably transduced (FIG. 10), Table 5): 31.085
